Experimental data taken from the supplement of paper PMC12764529.
± gives the half width of the 95% confidence interval.

Experiments:
[1] = folding stability dG unfold (combined trypsin and chymotrypsin); higher = more stable
Summary of the method: (§1)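 How resistant each design was to proteolysis was captured as K50, inferred by Bayesian fitting of sequencing counts. Unfolding free energy was then derived relative to a sequence-predicted unfolded-state K50 and a shared folded-state K50, per protease or combined. Digestion used trypsin and chymotrypsin at 11 threefold-diluted concentrations plus a no-protease condition, on mini-proteins under 80 residues without cysteine in a PA-tagged cDNA display construct. Designs were kept only when AlphaFold2 dimer inter-PAE was above 15.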

[2] = folding stability dG unfold from chymotrypsin proteolysis; higher = more stable
Summary of the method: as §1

[3] = folding stability dG unfold from trypsin proteolysis; higher = more stable
Summary of the method: as §1

Sequence	folding stability dG unfold [1]	folding stability dG unfold [2]	folding stability dG unfold [3]
SAGGKIKVTVEKEENGTYRVTVEITLPDGKKITITVTVPPGVKTEEEAKKLAEEKVKELLKKLGIKPSAGGS [r8_464_TrROS_Hall]	4.11 ± 0.16 kcal/mol	4.27 ± 0.14 kcal/mol	3.72 ± 0.15 kcal/mol
SAGGKILIYPGSIEEAIEALKANPNTTVLVISPDGTLIEITVEELGPGPFKIDIKVIPLLPPLKPDEASAGG [r13_56_TrMRF]	1.97 ± 0.069 kcal/mol	2.212 ± 0.021 kcal/mol	1.6 ± 0.043 kcal/mol
SAGGKITAFVLVELPDGSVVERTYEFERLDDLLAFLEADPGPKLADLEIIPPEGSDDIIIPLVARVEPSAGG [r13_796_TrMRF]	1.77 ± 0.1 kcal/mol	2.15 ± 0.053 kcal/mol	0.883 ± 0.041 kcal/mol
SAGGKITIEVTYNKETGEITIRITFNGKTIEIKIKVPGLSEEEVKKLAEELAKKLKEKYGIDKVEITSAGGS [r16_249_TrROS_Hall]	4.36 ± 0.29 kcal/mol	4.4 ± 0.11 kcal/mol	4.36 ± 0.45 kcal/mol
SAGGKKEKIVEIKLLDMSYDPENKTVTFKFLVKLENGEEKVIELKISAEDFEKMSLEDILKAVKDFFESAGG [r13_512_TrMRF]	4.72 ± 0.15 kcal/mol	4.83 ± 0.09 kcal/mol	3.74 ± 0.16 kcal/mol
SAGGKKEVILVIEIDLPESEEELLEEAERLAKELAELLGKEREVEVEVIEKDGKLIIVLRINGKEIVLSAGG [r13_845_TrROS_Hall]	2.52 ± 0.32 kcal/mol	2.68 ± 0.051 kcal/mol	2.78 ± 0.23 kcal/mol
SAGGKKFKIKEITITYNPDADTVTMTVKLDDGTTVELTFNKETKKLTVKVINKDTGEEKEFEFTLPDSAGGS [r8_363_TrROS_Hall]	4.77 ± 0.24 kcal/mol	4.9 ± 0.25 kcal/mol	3.1 ± 0.17 kcal/mol
SAGGKKIEIKEENGSLVIKVDGYLVTIEPIDGKLVATVVKKDKKTKKWKIVETKILTLDEILELLKKSAGGS [r8_174_TrROS_Hall]	2.66 ± 0.099 kcal/mol	3.034 ± 0.026 kcal/mol	1.91 ± 0.057 kcal/mol
SAGGKKIKVEVKIEIKIEKNPDGSYTIRIKITVKVTNENGEKFEVKVELEITLSEEELEKLKKLLEELSAGG [r13_412_TrROS_Hall]	3.5 ± 0.39 kcal/mol	3.75 ± 0.46 kcal/mol	3.07 ± 0.24 kcal/mol
SAGGKKIVIFIGPPEQMDRMQEQHPDEPVIPIPRDALQDPEPAKNLIKELQEKGKDVEIYLFKDFKPSAGGS [r8_376_TrROS]	-0.239 ± 0.17 kcal/mol	-0.287 ± 0.4 kcal/mol	-0.176 ± 0.31 kcal/mol
SAGGKKIVLFVGPPELVEELKKAYPDLPFVPIPVEVLENPEPAAEIIKELKEKGYEVVVYNFPDLKESAGGS [r8_376_TrMRF]	2.21 ± 0.071 kcal/mol	2.562 ± 0.021 kcal/mol	1.37 ± 0.057 kcal/mol
SAGGKKKKIEIEIVVKKEDLEKIAEELAKKLEEAGYKVKIKKIEVEVYKNKDGKIVYVKVRIEVEVEPSAGG [r13_707_TrROS_Hall]	4.65 ± 0.53 kcal/mol	4.82 ± 0.18 kcal/mol	3.05 ± 0.47 kcal/mol
SAGGKKKKIKPKEIKVRIIIEKDGKKIEIELSEEELEKIKKAPTLEEIIKELEKKGFKIVKIEIEKKSAGGS [r16_567_TrROS_Hall]	2.43 ± 0.21 kcal/mol	3.05 ± 0.059 kcal/mol	1.19 ± 0.073 kcal/mol
SAGGKKKKKKKKKKKKKVKVRVRIVVENKNGEKKEIEIELKGLTLEELKKLAKELEKKGFKVKKIEIESAGG [r13_227_TrROS_Hall]	3.34 ± 0.39 kcal/mol	3.53 ± 0.16 kcal/mol	3.28 ± 0.3 kcal/mol
SAGGKKKKVIIVIEAPPGMSAEEIAAAIAEKLGLPKEEIKVERFKSVEEALAAAEKEGKEVIVIEVDSAGGS [r8_245_TrROS_Hall]	2.41 ± 0.096 kcal/mol	2.56 ± 0.059 kcal/mol	2.06 ± 0.053 kcal/mol
SAGGKKKKVKKKKPVYRIKIKLKNGEEIEIEAKSKEEAEKAAKELLKKLFPEKKIDEIKIVEIEKLPPSAGG [r13_887_TrROS_Hall]	2.69 ± 0.16 kcal/mol	2.69 ± 0.12 kcal/mol	2.54 ± 0.061 kcal/mol

Sequence	folding stability dG unfold [1]	folding stability dG unfold [2]	folding stability dG unfold [3]
SAGGKKKKVVIKLPSTNKAVEAELVSVKKGKNKYYLEIKLPNGKKYKFPLEVIGDFKWDEGEGTLEVPSAGG [r13_211_TrMRF]	2.66 ± 0.11 kcal/mol	2.98 ± 0.05 kcal/mol	1.79 ± 0.047 kcal/mol
SAGGKKKLVEITIKVPPGMTVEELIAEIAKKLPPGAKIVKVEYDKETKEIKIIVYDEKTKKKIEIKFSAGGS [r16_250_TrROS_Hall]	1.64 ± 0.14 kcal/mol	1.51 ± 0.036 kcal/mol	1.81 ± 0.049 kcal/mol
SAGGKKKTAEELAEELKKKLEELGFKVVKIEKLPDGTVLITFEDGYVIKFDVKTGKITIMPKEELEKLSAGG [r13_717_TrROS_Hall]	1.96 ± 0.079 kcal/mol	2.16 ± 0.029 kcal/mol	1.62 ± 0.11 kcal/mol
SAGGKKKYKLIIKIKFKKGDIDKAKKEVEAIANKIKDEFEKKGVKVKVKVSYDKDNDIVYIEVEFEVPSAGG [r13_755_TrMRF]	4.24 ± 0.14 kcal/mol	4.43 ± 0.082 kcal/mol	3.36 ± 0.12 kcal/mol
SAGGKKMTFKVDEIQTHGNQIMIPIRFPDGHPFPMQIDDPEQLDNLKPGEEIKIEFRPDGSFRIEWRSAGGS [r16_2_TrROS]	1.55 ± 0.17 kcal/mol	1.65 ± 0.18 kcal/mol	1.45 ± 0.066 kcal/mol
SAGGKKPERVKITIMIPFDDPDKLRNFLRNHGFKVDEVEPNKEGMLAVEFEFPGYEIEIIIMDPGAMSAGGS [r16_170_TrROS]	3.35 ± 0.14 kcal/mol	3.74 ± 0.087 kcal/mol	2.83 ± 0.16 kcal/mol
SAGGKKTFKVTLTLELKVERDEETGELKTETLTLTLTIEAESEEEAEKALKELLEKLELSPELKKALSAGGS [r16_40_TrROS_Hall]	3.4 ± 0.097 kcal/mol	3.76 ± 0.064 kcal/mol	2.17 ± 0.082 kcal/mol
SAGGKKVFTLDELKKLAEELNIEKIEVKEDEEGIYTFTFTDLAKKTGKEVTIKIVRNKNGELLVEIEPSAGG [r13_163_TrROS_Hall]	2.53 ± 0.14 kcal/mol	2.9 ± 0.087 kcal/mol	1.78 ± 0.074 kcal/mol
SAGGKKVKIKVTIVIKVEPGESVEEIAKKLAEELGLKVEVKVEVVKRKDGSLYVVIEVEIELPEELKPSAGG [r13_590_TrROS_Hall]	2.85 ± 0.56 kcal/mol	3.18 ± 0.24 kcal/mol	2.3 ± 0.16 kcal/mol
SAGGKKVVIVFDVENLTPEQIRELVRKAIESLPDPENVVIVANVTSPATVEELAELAKEHPEVKFVVGSAGG [r13_718_TrMRF]	3.56 ± 0.12 kcal/mol	3.45 ± 0.085 kcal/mol	3.79 ± 0.11 kcal/mol
SAGGKLTELIRSLFEKLNVPLEPLETGPNSAIFRFPGKPGVFELPGNSRIVIFEDGLVVVVAPPNDLSAGGS [r8_297_TrMRF]	1.61 ± 0.081 kcal/mol	1.57 ± 0.093 kcal/mol	1.51 ± 0.1 kcal/mol
SAGGKLTITLPPGVKEVKIEVDKETNEVKVTVTVEVTDENGKKHKVTRTFTFKLEDGETVTVTVTLPSAGGS [r16_552_TrROS_Hall]	5.44 ± 0.28 kcal/mol	5.43 ± 0.13 kcal/mol	4.42 ± 0.27 kcal/mol
SAGGKLTLEEIKALLKEGKEYSLEELLKKIAELLNLTVELEEEPEKVTVVKVDPETGEIVEEKEIDLSAGGS [r8_105_TrROS_Hall]	2.28 ± 0.11 kcal/mol	2.44 ± 0.036 kcal/mol	2.01 ± 0.1 kcal/mol
SAGGKLTPEEIEELAKKLAEELRKEGKEVEIEVEIEVDGKLIKIKMKIDPKTKKIEIVKIEVYPKEDLSAGG [r13_37_TrROS_Hall]	3.58 ± 0.21 kcal/mol	2.93 ± 0.092 kcal/mol	3.9 ± 0.14 kcal/mol
SAGGKMKLEVEILENEGTILVRFHFGDKVLEIPLPFPNLTPEDVKEAAEEIAKKLKEEYNIEEVEIESAGGS [r16_249_TrMRF]	2.64 ± 0.28 kcal/mol	3.18 ± 0.23 kcal/mol	2.33 ± 0.13 kcal/mol
